Source: the DeepSol protein solubility set

assay: soluble on expression in E. coli; label from the status in PepcDB or PDB records

Sequence	soluble on expression in E. coli
MGSDKIHHHHHHMKSTTVPSEGGGGLDATTRTSVQPHPLHGPDATWQETNCYIDLWIELLHAWGLDPRAALPFTVAQDFEGDHFTFFKYPQADLETLYGTVVQEMAVYDTLQAHVVTQVERGHTVLVEVDSYYLPDTHATAYKREHVKTTVAIDNIDPHAQRLSYFHSLGYHSAHDEDYRGLMRLSRELSGNGNILFPYAECAKRVRPALTMPAMADASVALMRQHLDRLPAINPVTLWRREFDAHMDTLLARDDAYFHLYTFNLPRQLGANFEMLHHWLRWLDEQGRGNPLAARAAESAATIAAEAKVLQFRLARAVARRRADPCTQSLDVLECCYDKTVEGLLSAFGDTRLAAA	not soluble
MADRQLLHTAHIPVRWGDMDSYGHVNNTLYFQYLEEARVAWFETLGIDLEGAAEGPVVLQSLHTYLKPVVHPATVVVELYAGRLGTSSLVLEHRLHTLEDPQGTYGEGHCKLVWVRHAENRSTPVPDSIRAAIA	soluble
MGFFSGQFSNVVEWEEFREDMIFWKWHNREIKRGSKLIIRPGQDAIFLFNGRIEGIFKDEGDYDIESQIIPFLSTLQGFKFGFNSGMRAEVLFVNTKEFTAKWGTKSAINIPTPQLPGGIPIRANGTFTFKVNDYVKLIDRIAGVKDSFLVEDVRLRIMALLDQLMMKWIVQEGRDMFNLQSNSFAIADGLKTDLDMQIYDMGITVSQLTIMSFTYPEEIQQMIAKAASHTMIGDMGRYQQVSVLDGIAGGKLEHHHHHH	not soluble
MNIHEIRKQFPILDQKVNGKQLVYFDSAATSQKPIQVIETLERYYKEYNSNVHRGVHTLGTKATDAYEGAREKVRKFINAKSMEEIIFTCGTTTALNTVAASYGLENVKEGDEIVISYMEHHSNIIPWQQVAKKTGATLKYLPLQPDGTISIEDARQTITPNTKIVSIMYVSNVLGTINPVKEIGAIAHENGAIMVVDGAQSTPHMKVDVQDLNCDFYALSAHKMCGPTGIGVLYGKKELLNNMEPIEFGGEMIDFVDLQESTWKELPWKFEAGTPIIGNAIGLGAAIDFLEEIGLDNIEKHEHELAQYALERLSEVDGVTIYGPKHRAGLVTFNIEDVHPHDVATVLDVEGIAVRAGHHCAQPLMKWLKASSTARASFYLYNTKEEIDTFVESLIKTKEYFTNVI	not soluble
MKKTHINVIGAGLAGSEAAYQIAKRGIPVKLYEMRGVKQTPQHKTDKFAELVCSNSLRGAAITNAVGLLKEEMRRLDSVIIKAAEVTQVPAGGALAVDREGFSDFVTREVSNHPLVEVIREEITDLPEDEITIIATGPLTSDKLAEKIHEFNGADGFYFYDAAAPIIDANSINFDKVYKKSRYDKGEADYINCPMTKEEFQAFQEALISAEEAPLNSFEDLKVFEGCMPIEEMAKRGYKTMLFGPMKPVGLEYPEDYKGPRDGDFKTPYAVVQLRQDNASASLYNIVGFQTHLKWGEQKRVFQMIPGLENAEFVRYGVMHRNSYMDSPNLLKQTFQSRKQENLFFAGQMTGVEGYVESAASGLVAGINAVKLFNDEEVVIFPKTTAIGSLPYYITHTDSKHFQPMNVTFGIVEELEGPRIRDKKERYTKVAERALNSLTDIISKDNLLEHHHHHH	soluble
MGSDKIHHHHHHMKISEFEGPLDLLLHLIRQNKMDIYDIPIAAITQQYLDYLHSMRALKLDIAGDYLVMAATLMTIKSRFLLPQPEPDEMDEDNEDDDPRDSLVAELLAYKVYQEAAGELREKEQARHQHFTREAMLVPADLSAPKLTAGITLDDLQAAFRQLVAKRRRVRPLTKTVVAETINIDERMTQITTQLQHQPQGLDFADLFTVSASDEMLVTTFMAVLELTKQDQVALQQAEPLSPIHLYLRQDEQHDEH	not soluble
MGSDKIHHHHHHMKKMTILSAAVLMALGAPVAMAKVSEAEAAKLGAELTPQGAVKAGNADGSIPAWDGGITTAVAGYSQGMHHPDPFPTDKILFTITNANKAQYKDFLNPGQVKLFELYPETYKMNVYETRRTASVPQYVYDATKANATRAELIAQGNGISGATIGVPFPIPANGLEVIWNHVLRFRGVDLETNRSQASPTADGSYTLVETAEELRFEYSRPEITLDKLKETNTLFFFKQVVTQPARLAGTALLVKETMDQEALPRQAWTYNTGQRRVRKAPNIAFDTPGTVADGLRTTDDFDMFNGSPVRYNWELVGKKEMYIPYNDYKLHSDSLKYDQILKPGHINPDLVRWEKHRVWEVKATLKAGMRHIYKTRVFYIDEDSWQVSLTDMYDNRDELYRVANAHSINYYEVPTLWTTLEVFHDLQSRRYLAMGLDNEGRMYNFKANLTESNFTPDALRRAGIR	not soluble
